B1: CPEB3 Ribozyme (parent)
chain: GGGGGCCACAGCAGAAGCGUUCACGUCGCGGCCCCUGUCAGAUUCUGGUGAAUCUGCGAAUUCUGCUGU

The series covers variants of B1. Kind of series: self-cleavage, relative activity (ratio to wild type); higher = more cleavage; co-transcriptional.
For the variant GGGGGCCACAGCAGAAGCGUUCACGUCGGGGCCCCUGUCAGCUUCUGGUGAAUCUGCGAAUUCUGCUGU [C29G A42C], the self-cleavage worked out at 0.347.

On to GGGGGCCACAGCAGAAGCGUUCACGUCGAGGCCCCUGUCAGAUUCUGGUGAAUCUGCGAAUGCUGCUGU [C29A U62G], for which the self-cleavage came out at 0.269.

On to GGGGGCCACAGCAGAAGCGUUCACGUCGGGGCCCCUGUCAGAUUCUGGUGAAUCUGCGAAUUCUGGUGU [C29G C66G], for which the self-cleavage was 0.369.

As to GGGGGCCACAGCAGAAGCGUUCACGUCGGGGCCCCUCUCAGAUUCUGGUGAAUCUGCGAAUUCUGCUGU [C29G G37C], the self-cleavage was 0.169.

For GGGGGCCACAGCAGAAGCGUUCACGUCGGGGCCCCUAUCAGAUUCUGGUGAAUCUGCGAAUUCUGCUGU [C29G G37A], the self-cleavage was found to be 0.178.

Turning to GGGGGCCACAGCAGAAGCGUUCACGUCGGGGCCCCUGUGAGAUUCUGGUGAAUCUGCGAAUUCUGCUGU [C29G C39G], the self-cleavage worked out at 0.267.

As for GGGGGCCACAGCAGAAGCGUUCACGUCGGGGCCCCUGUUAGAUUCUGGUGAAUCUGCGAAUUCUGCUGU [C29G C39U], the self-cleavage came out at 0.251.

For the variant GGGGGCCACAGCAGAAGCGUUCACGUCGGGGCCCCUGUCAGAUUCUGGUGAAUUUGCGAAUUCUGCUGU [C29G C54U], the self-cleavage came to 0.545.

Consider GGGGGCCACAGCAGAAGCGUUCACGUCGGGGCCCCUGUCAGAUUCUGGUGAAUGUGCGAAUUCUGCUGU [C29G C54G], for which the self-cleavage stood at 0.246.

Take GGGGGCCACAGCAGAAGCGUUCACGUCGAGGCCCAUGUCAGAUUCUGGUGAAUCUGCGAAUUCUGCUGU [C29A C35A]: the self-cleavage is 0.157.

On to GGGGGCCACAGCAGAAGCGUUCACGUCGGGGCCCCUGUCAGAUUCUGGUGAAUCUGCGGAUUCUGCUGU [C29G A59G], for which the self-cleavage is 0.675.

In the case of GGGGGCCACAGCAGAAGCGUUCACGUCGGGGCCCCUGUCACAUUCUGGUGAAUCUGCGAAUUCUGCUGU [C29G G41C], the self-cleavage amounted to 0.173.

GGGGGCCACAGCAGAAGCGUUCACGUCGGGGCCCCUGUCAUAUUCUGGUGAAUCUGCGAAUUCUGCUGU [C29G G41U]: the self-cleavage was 0.21.

Take GGGGGCCACAGCAGAAGCGUUCACGUCGGGGCCCCUGUCAGAUGCUGGUGAAUCUGCGAAUUCUGCUGU [C29G U44G]: the self-cleavage stood at 0.361.

As for GGGGGCCACAGCAGAAGCGUUCACGUCGGGGCUCCUGUCAGAUUCUGGUGAAUCUGCGAAUUCUGCUGU [C29G C33U], the self-cleavage turned out to be 0.558.

In the case of GGGGGCCACAGCAGAAGCGUUCACGUCGGGGCCCCUGUCAGAUUCUGGUGAAUCUGCGAAUUGUGCUGU [C29G C63G], the self-cleavage came to 0.183.

For GGGGGCCACAGCAGAAGCGUUCACGUCGGGGCCUCUGUCAGAUUCUGGUGAAUCUGCGAAUUCUGCUGU [C29G C34U], the self-cleavage was 0.495.

For GGGGGCCACAGCAGAAGCGUUCACGUCGGGGCCACUGUCAGAUUCUGGUGAAUCUGCGAAUUCUGCUGU [C29G C34A], the self-cleavage is 0.227.

Consider GGGGGCCACAGCAGAAGCGUUCACGUCGAGGCCCCUGUCAGAUUCUGGUGAAUCGGCGAAUUCUGCUGU [C29A U55G], for which the self-cleavage turned out to be 0.323.

Regarding GGGGGCCACAGCAGAAGCGUUCACGUCGAGGCCCCUGUCAGAUCCUGGUGAAUCUGCGAAUUCUGCUGU [C29A U44C], the self-cleavage came to 0.515.

For GGGGGCCACAGCAGAAGCGUUCACGUCGAGGCCCCUGUCAGAUGCUGGUGAAUCUGCGAAUUCUGCUGU [C29A U44G], the self-cleavage turned out to be 0.521.

With GGGGGCCACAGCAGAAGCGUUCACGUCGGGGCCCCCGUCAGAUUCUGGUGAAUCUGCGAAUUCUGCUGU [C29G U36C], the self-cleavage stood at 0.286.

As for GGGGGCCACAGCAGAAGCGUUCACGUCGAGGCCCCUGUCAGAUUCUGGUGAAUCUGCGAAUUUUGCUGU [C29A C63U], the self-cleavage stood at 0.465.

With GGGGGCCACAGCAGAAGCGUUCACGUCGGGGCCCCUGUCAGAUUCUGGUGAAUCUGCGAAUUCUGCGGU [C29G U67G], the self-cleavage stood at 0.482.

As to GGGGGCCACAGCAGAAGCGUUCACGUCGGGGCCCCUGUCAGAUUCUGGUGAAUCUGCGAAUUCUGCCGU [C29G U67C], the self-cleavage is 0.47.

Regarding GGGGGCCACAGCAGAAGCGUUCACGUCGGGGCCCCUGUCAGAUUCUGGUGAAUCUGCGAAUUCUGCAGU [C29G U67A], the self-cleavage came to 0.517.

With GGGGGCCACAGCAGAAGCGUUCACGUCGAGGCCCCUGUCAGAGUCUGGUGAAUCUGCGAAUUCUGCUGU [C29A U43G], the self-cleavage worked out at 0.364.

On to GGGGGCCACAGCAGAAGCGUUCACGUCGAGGCCCCUGUCAGACUCUGGUGAAUCUGCGAAUUCUGCUGU [C29A U43C], for which the self-cleavage was determined as 0.465.

Consider GGGGGCCACAGCAGAAGCGUUCACGUCGGGGCCCCUGUCAGAUUCCGGUGAAUCUGCGAAUUCUGCUGU [C29G U46C], for which the self-cleavage is 0.473.

Regarding GGGGGCCACAGCAGAAGCGUUCACGUCGAGGCCCCUGUCAGAUUCUGGUGAAUCUGCUAAUUCUGCUGU [C29A G58U], the self-cleavage is 0.795.

GGGGGCCACAGCAGAAGCGUUCACGUCGAGGCCCCUGUCAGAUUCUGGUGAAUCUGCCAAUUCUGCUGU [C29A G58C]: the self-cleavage was found to be 0.685.

In the case of GGGGGCCACAGCAGAAGCGUUCACGUCGGGGCCCCUGACAGAUUCUGGUGAAUCUGCGAAUUCUGCUGU [C29G U38A], the self-cleavage stood at 0.316.

Regarding GGGGGCCACAGCAGAAGCGUUCACGUCGAGGCCCCUGUCAGAUUCUGGUGAAUCUGCGAAUUCUGCUGA [C29A U69A], the self-cleavage was 0.91.

On to GGGGGCCACAGCAGAAGCGUUCACGUCGAGGCCCCUGUCAGAUUCUGGUGAAUCUGCGAAUUCUGCUGG [C29A U69G], for which the self-cleavage was 0.864.

On to GGGGGCCACAGCAGAAGCGUUCACGUCGAGGCCCCUGUCAGAUUAUGGUGAAUCUGCGAAUUCUGCUGU [C29A C45A], for which the self-cleavage was 0.635.

As to GGGGGCCACAGCAGAAGCGUUCACGUCGAGGCCCCUGUCAGAUUGUGGUGAAUCUGCGAAUUCUGCUGU [C29A C45G], the self-cleavage amounted to 0.605.

With GGGGGCCACAGCAGAAGCGUUCACGUCGGGGCCCCUGUCAGAUUCUGGUGAAUCUGCGAAUUCAGCUGU [C29G U64A], the self-cleavage amounted to 0.191.

For GGGGGCCACAGCAGAAGCGUUCACGUCGGGGCCCCUGUCAGAUUCUGGUGAAUCUGCGAAUUCUGCUGG [C29G U69G], the self-cleavage stood at 0.703.

As to GGGGGCCACAGCAGAAGCGUUCACGUCGGGGCCCCUGUCAGAUUCUGGUGAAUCUGCGAACUCUGCUGU [C29G U61C], the self-cleavage worked out at 0.221.
